In patent US20200283521A1 (GRANULAR THERAPEUTICS, published 2020):

How the values were obtained:
Experiment in all cases: cell array, transfected fixed HEK293 cells
PSAPL1 = molecular target: T1, PSAPL1 (human, UniProt Q6NUJ1)
T1 construct: expressed in transfected HEK293 cells
T1 sequence (looked up): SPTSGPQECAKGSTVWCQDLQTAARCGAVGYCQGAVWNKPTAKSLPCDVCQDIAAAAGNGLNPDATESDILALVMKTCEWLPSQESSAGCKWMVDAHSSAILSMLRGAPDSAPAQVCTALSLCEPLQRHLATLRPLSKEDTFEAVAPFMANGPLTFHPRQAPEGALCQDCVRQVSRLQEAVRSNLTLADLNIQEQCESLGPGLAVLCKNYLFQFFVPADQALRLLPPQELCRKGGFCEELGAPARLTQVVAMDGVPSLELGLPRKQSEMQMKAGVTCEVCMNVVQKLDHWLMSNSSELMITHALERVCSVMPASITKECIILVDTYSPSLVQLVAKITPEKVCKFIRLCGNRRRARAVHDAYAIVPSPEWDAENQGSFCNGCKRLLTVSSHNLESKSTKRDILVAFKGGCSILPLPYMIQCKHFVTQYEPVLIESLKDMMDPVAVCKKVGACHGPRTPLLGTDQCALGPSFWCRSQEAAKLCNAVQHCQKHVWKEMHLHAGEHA
Method: (§1) Transfection of all plasmids was confirmed by screening for the co-encoded marker ZS green (FIG. 13A).
(§2) Primary hits (duplicate spots) were identified by analysing fluorescence (AF647 and ZsGreenl) on ImageQuant. Vectors encoding all hits were sequenced to confirm their correct identities. […] Slides were analysed as above.

COL23A1 = molecular target: T2, COL23A1 (human, UniProt Q86Y22)
T2 construct: expressed in transfected HEK293 cells
Method: as §1, §2

BAIAP2L2 = molecular target: T3, BAIAP2L2 (human, UniProt Q6UXY1)
T3 construct: expressed in transfected HEK293 cells
T3 sequence (looked up): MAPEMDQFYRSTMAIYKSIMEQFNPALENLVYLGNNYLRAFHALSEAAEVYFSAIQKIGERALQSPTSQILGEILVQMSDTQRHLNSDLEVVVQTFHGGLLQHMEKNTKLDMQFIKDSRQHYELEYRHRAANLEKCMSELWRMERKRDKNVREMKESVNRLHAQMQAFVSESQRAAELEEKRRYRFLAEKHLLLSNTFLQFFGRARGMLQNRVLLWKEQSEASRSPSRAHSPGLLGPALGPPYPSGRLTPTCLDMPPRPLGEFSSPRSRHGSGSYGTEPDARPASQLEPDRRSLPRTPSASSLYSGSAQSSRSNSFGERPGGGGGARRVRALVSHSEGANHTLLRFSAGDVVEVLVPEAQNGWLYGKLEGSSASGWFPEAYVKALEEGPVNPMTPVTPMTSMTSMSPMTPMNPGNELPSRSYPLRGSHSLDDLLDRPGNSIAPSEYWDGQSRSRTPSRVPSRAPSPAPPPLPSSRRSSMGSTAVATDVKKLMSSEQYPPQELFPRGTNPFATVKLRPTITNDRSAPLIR
Method: as §1, §2

SLMAP = molecular target: T4, SLMAP (human, UniProt Q14BN4)
T4 construct: expressed in transfected HEK293 cells
T4 sequence (looked up): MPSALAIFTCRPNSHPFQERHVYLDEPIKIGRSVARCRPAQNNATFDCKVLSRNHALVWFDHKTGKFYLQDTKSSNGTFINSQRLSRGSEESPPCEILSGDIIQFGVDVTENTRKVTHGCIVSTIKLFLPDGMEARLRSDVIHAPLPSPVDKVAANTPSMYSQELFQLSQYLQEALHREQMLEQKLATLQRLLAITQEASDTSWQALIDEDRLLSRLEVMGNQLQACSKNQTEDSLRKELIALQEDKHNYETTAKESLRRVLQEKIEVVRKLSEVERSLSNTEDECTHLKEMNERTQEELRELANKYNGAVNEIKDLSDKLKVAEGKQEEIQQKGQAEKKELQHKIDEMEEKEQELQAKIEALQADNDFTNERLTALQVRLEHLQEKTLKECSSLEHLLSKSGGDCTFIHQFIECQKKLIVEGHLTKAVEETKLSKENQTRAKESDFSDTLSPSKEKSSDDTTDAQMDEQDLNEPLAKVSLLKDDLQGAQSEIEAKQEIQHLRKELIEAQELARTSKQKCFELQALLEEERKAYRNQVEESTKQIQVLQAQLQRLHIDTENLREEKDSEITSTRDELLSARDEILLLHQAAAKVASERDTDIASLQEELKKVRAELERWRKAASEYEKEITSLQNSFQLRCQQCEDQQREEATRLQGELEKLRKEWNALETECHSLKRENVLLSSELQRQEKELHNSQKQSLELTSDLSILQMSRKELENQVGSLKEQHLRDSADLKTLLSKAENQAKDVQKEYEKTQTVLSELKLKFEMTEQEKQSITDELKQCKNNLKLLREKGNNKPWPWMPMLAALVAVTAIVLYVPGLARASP
Method: as §1, §2

ANXA6 = molecular target: T5, ANXA6 (human, UniProt P08133)
T5 construct: expressed in transfected HEK293 cells
T5 sequence (looked up): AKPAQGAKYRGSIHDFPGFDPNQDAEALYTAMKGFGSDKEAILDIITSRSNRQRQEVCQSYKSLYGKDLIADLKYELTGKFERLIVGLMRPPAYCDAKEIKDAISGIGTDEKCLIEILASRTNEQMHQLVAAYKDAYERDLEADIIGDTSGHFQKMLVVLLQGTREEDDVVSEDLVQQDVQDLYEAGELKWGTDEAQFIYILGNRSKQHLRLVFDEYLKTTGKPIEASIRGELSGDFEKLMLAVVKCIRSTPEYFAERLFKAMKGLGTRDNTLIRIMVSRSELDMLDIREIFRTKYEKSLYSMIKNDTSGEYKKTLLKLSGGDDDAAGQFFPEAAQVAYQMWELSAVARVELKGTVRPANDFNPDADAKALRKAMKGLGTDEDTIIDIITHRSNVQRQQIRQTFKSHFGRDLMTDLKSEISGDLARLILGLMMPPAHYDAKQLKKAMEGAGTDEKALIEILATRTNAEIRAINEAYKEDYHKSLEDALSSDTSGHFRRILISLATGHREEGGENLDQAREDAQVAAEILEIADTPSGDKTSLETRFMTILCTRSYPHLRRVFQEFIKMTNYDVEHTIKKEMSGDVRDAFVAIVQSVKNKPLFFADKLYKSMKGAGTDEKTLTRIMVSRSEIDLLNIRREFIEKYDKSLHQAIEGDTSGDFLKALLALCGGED
Method: as §1, §2

Measured: binding result

T2 sequence (Q86Y22 whole entry): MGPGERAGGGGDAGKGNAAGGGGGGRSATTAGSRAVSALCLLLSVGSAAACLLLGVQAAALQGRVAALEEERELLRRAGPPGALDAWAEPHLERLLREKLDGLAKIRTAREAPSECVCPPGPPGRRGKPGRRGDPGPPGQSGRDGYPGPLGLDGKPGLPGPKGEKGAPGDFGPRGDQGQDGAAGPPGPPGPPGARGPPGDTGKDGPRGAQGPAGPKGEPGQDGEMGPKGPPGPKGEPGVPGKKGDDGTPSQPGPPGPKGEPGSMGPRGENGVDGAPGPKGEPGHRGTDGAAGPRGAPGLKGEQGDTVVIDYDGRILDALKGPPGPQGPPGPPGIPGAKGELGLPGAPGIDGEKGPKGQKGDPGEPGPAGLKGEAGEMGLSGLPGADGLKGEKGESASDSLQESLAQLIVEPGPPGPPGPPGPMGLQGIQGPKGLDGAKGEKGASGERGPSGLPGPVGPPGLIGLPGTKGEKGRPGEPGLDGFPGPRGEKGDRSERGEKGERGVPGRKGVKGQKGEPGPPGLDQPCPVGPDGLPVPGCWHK

B1: humanized h37M, human IgG1 (antibody, V domains shown)
VH: QVQLVQSGAEVKKPGASVKLSCKASGYTFTDYYINWVRQAPGKGLEWIARIYPGSGNTYYNEKFKGRATLTADKSTSTAYMQLSSLRSEDTAVYFCARGVYYFDYWGQGTTVTVSS
VL: DIVMTQSPSSLSASVGDRVTITCKASQNVRTNVAWYQQKPGKAPKALIYSASYRYSGVPDRFTGSGSGTDFTLTISSLQPEDFADYFCQQYNSYPRTFGGGTKVEIK
notes: human IgG1; terbium-labelled as the tracer of the HTRF assays; also called C-KIT-h37M; h37M-IgG1
no binding (tested: 2 µg/ml): all assays above
